Measured values as given in patent publication US20230357348A1 (AstraZeneca / MedImmune, published 2023).
Starred links: 1 amine or outer side, 2 acyl side, 3 side chain; linkers in the order of their positions; H or OH if unused. Non-standard residues stand in square brackets, D forms with d. Groups on a side chain read outwards from the residue. No end group written: not given here. *: point of attachment. C20 diacid = O=C(O)CCCCCCCCCCCCCCCCCCC(=O)*; C18 diacid = O=C(O)CCCCCCCCCCCCCCCCC(=O)*; γGlu = O=C(O)[C@H](CCC(=O)[*:2])N[*:1]; αMeF = C[C@](N)(Cc1ccccc1)C(=O)O; AEEA = NCCOCCOCC(=O)O; Aib = CC(C)(N)C(=O)O

B1: Peptide 20 (peptide)
peptide: H[Aib]HGS[αMeF]TSDVSK[αMeF]LDSK([AEEA-AEEA-γGlu-γGlu-C18 diacid])AARD[αMeF]VE[Aib]IANT-NH2
modifications: N-terminus assumed
SMILES: CC[C@H](C)[C@H](NC(=O)C(C)(C)NC(=O)[C@H](CCC(=O)O)NC(=O)[C@@H](NC(=O)[C@](C)(Cc1ccccc1)NC(=O)[C@H](CC(=O)O)NC(=O)[C@H](CCCNC(=N)N)NC(=O)[C@H](C)NC(=O)[C@H](C)NC(=O)[C@H](CCCCNC(=O)COCCOCCNC(=O)COCCOCCNC(=O)CC[C@H](NC(=O)CC[C@H](NC(=O)CCCCCCCCCCCCCCCCC(=O)O)C(=O)O)C(=O)O)NC(=O)[C@H](CO)NC(=O)[C@H](CC(=O)O)NC(=O)[C@H](CC(C)C)NC(=O)[C@](C)(Cc1ccccc1)NC(=O)[C@H](CCCCN)NC(=O)[C@H](CO)NC(=O)[C@@H](NC(=O)[C@H](CC(=O)O)NC(=O)[C@H](CO)NC(=O)[C@@H](NC(=O)[C@](C)(Cc1ccccc1)NC(=O)[C@H](CO)NC(=O)CNC(=O)[C@H](Cc1c[nH]cn1)NC(=O)C(C)(C)NC(=O)[C@@H](N)Cc1c[nH]cn1)[C@@H](C)O)C(C)C)C(C)C)C(=O)N[C@@H](C)C(=O)N[C@@H](CC(N)=O)C(=O)N[C@H](C(N)=O)[C@@H](C)O
B2: Peptide 21 (peptide)
peptide: H[Aib]HGS[αMeF]TSDVSK[αMeF]LDSK([γGlu-C18 diacid])AAQD[αMeF]VESIANT-NH2
modifications: N-terminus assumed
SMILES: CC[C@H](C)[C@H](NC(=O)[C@H](CO)NC(=O)[C@H](CCC(=O)O)NC(=O)[C@@H](NC(=O)[C@](C)(Cc1ccccc1)NC(=O)[C@H](CC(=O)O)NC(=O)[C@H](CCC(N)=O)NC(=O)[C@H](C)NC(=O)[C@H](C)NC(=O)[C@H](CCCCNC(=O)CC[C@H](NC(=O)CCCCCCCCCCCCCCCCC(=O)O)C(=O)O)NC(=O)[C@H](CO)NC(=O)[C@H](CC(=O)O)NC(=O)[C@H](CC(C)C)NC(=O)[C@](C)(Cc1ccccc1)NC(=O)[C@H](CCCCN)NC(=O)[C@H](CO)NC(=O)[C@@H](NC(=O)[C@H](CC(=O)O)NC(=O)[C@H](CO)NC(=O)[C@@H](NC(=O)[C@](C)(Cc1ccccc1)NC(=O)[C@H](CO)NC(=O)CNC(=O)[C@H](Cc1c[nH]cn1)NC(=O)C(C)(C)NC(=O)[C@@H](N)Cc1c[nH]cn1)[C@@H](C)O)C(C)C)C(C)C)C(=O)N[C@@H](C)C(=O)N[C@@H](CC(N)=O)C(=O)N[C@H](C(N)=O)[C@@H](C)O
B3: Peptide 22 (peptide)
peptide: H[Aib]HGS[αMeF]TSDVSK[αMeF]LDSK([AEEA-AEEA-γGlu-γGlu-C20 diacid])AAQD[αMeF]VESIANT-NH2
modifications: N-terminus assumed
SMILES: CC[C@H](C)[C@H](NC(=O)[C@H](CO)NC(=O)[C@H](CCC(=O)O)NC(=O)[C@@H](NC(=O)[C@](C)(Cc1ccccc1)NC(=O)[C@H](CC(=O)O)NC(=O)[C@H](CCC(N)=O)NC(=O)[C@H](C)NC(=O)[C@H](C)NC(=O)[C@H](CCCCNC(=O)COCCOCCNC(=O)COCCOCCNC(=O)CC[C@H](NC(=O)CC[C@H](NC(=O)CCCCCCCCCCCCCCCCCCC(=O)O)C(=O)O)C(=O)O)NC(=O)[C@H](CO)NC(=O)[C@H](CC(=O)O)NC(=O)[C@H](CC(C)C)NC(=O)[C@](C)(Cc1ccccc1)NC(=O)[C@H](CCCCN)NC(=O)[C@H](CO)NC(=O)[C@@H](NC(=O)[C@H](CC(=O)O)NC(=O)[C@H](CO)NC(=O)[C@@H](NC(=O)[C@](C)(Cc1ccccc1)NC(=O)[C@H](CO)NC(=O)CNC(=O)[C@H](Cc1c[nH]cn1)NC(=O)C(C)(C)NC(=O)[C@@H](N)Cc1c[nH]cn1)[C@@H](C)O)C(C)C)C(C)C)C(=O)N[C@@H](C)C(=O)N[C@@H](CC(N)=O)C(=O)N[C@H](C(N)=O)[C@@H](C)O
B4: Peptide 23 (peptide)
peptide: H[Aib]HGS[αMeF]TSDVSK[αMeF]LDSK([AEEA-AEEA-γGlu-C18 diacid])AAQD[αMeF]VESIANT-NH2
modifications: N-terminus assumed
SMILES: CC[C@H](C)[C@H](NC(=O)[C@H](CO)NC(=O)[C@H](CCC(=O)O)NC(=O)[C@@H](NC(=O)[C@](C)(Cc1ccccc1)NC(=O)[C@H](CC(=O)O)NC(=O)[C@H](CCC(N)=O)NC(=O)[C@H](C)NC(=O)[C@H](C)NC(=O)[C@H](CCCCNC(=O)COCCOCCNC(=O)COCCOCCNC(=O)CC[C@H](NC(=O)CCCCCCCCCCCCCCCCC(=O)O)C(=O)O)NC(=O)[C@H](CO)NC(=O)[C@H](CC(=O)O)NC(=O)[C@H](CC(C)C)NC(=O)[C@](C)(Cc1ccccc1)NC(=O)[C@H](CCCCN)NC(=O)[C@H](CO)NC(=O)[C@@H](NC(=O)[C@H](CC(=O)O)NC(=O)[C@H](CO)NC(=O)[C@@H](NC(=O)[C@](C)(Cc1ccccc1)NC(=O)[C@H](CO)NC(=O)CNC(=O)[C@H](Cc1c[nH]cn1)NC(=O)C(C)(C)NC(=O)[C@@H](N)Cc1c[nH]cn1)[C@@H](C)O)C(C)C)C(C)C)C(=O)N[C@@H](C)C(=O)N[C@@H](CC(N)=O)C(=O)N[C@H](C(N)=O)[C@@H](C)O
B5: Peptide 24 (peptide)
peptide: H[Aib]HGS[αMeF]TSDVSK[αMeF]LDSK([AEEA-AEEA-γGlu-C18 diacid])AAQD[αMeF]VQ[Aib]IANT-NH2
modifications: N-terminus assumed
SMILES: CC[C@H](C)[C@H](NC(=O)C(C)(C)NC(=O)[C@H](CCC(N)=O)NC(=O)[C@@H](NC(=O)[C@](C)(Cc1ccccc1)NC(=O)[C@H](CC(=O)O)NC(=O)[C@H](CCC(N)=O)NC(=O)[C@H](C)NC(=O)[C@H](C)NC(=O)[C@H](CCCCNC(=O)COCCOCCNC(=O)COCCOCCNC(=O)CC[C@H](NC(=O)CCCCCCCCCCCCCCCCC(=O)O)C(=O)O)NC(=O)[C@H](CO)NC(=O)[C@H](CC(=O)O)NC(=O)[C@H](CC(C)C)NC(=O)[C@](C)(Cc1ccccc1)NC(=O)[C@H](CCCCN)NC(=O)[C@H](CO)NC(=O)[C@@H](NC(=O)[C@H](CC(=O)O)NC(=O)[C@H](CO)NC(=O)[C@@H](NC(=O)[C@](C)(Cc1ccccc1)NC(=O)[C@H](CO)NC(=O)CNC(=O)[C@H](Cc1c[nH]cn1)NC(=O)C(C)(C)NC(=O)[C@@H](N)Cc1c[nH]cn1)[C@@H](C)O)C(C)C)C(C)C)C(=O)N[C@@H](C)C(=O)N[C@@H](CC(N)=O)C(=O)N[C@H](C(N)=O)[C@@H](C)O
B6: Peptide 29 (peptide)
peptide: H[Aib]QGTFTSDVSK[αMeF]LDSK([AEEA-AEEA-γGlu-C18 diacid])RA[Aib]DFVQWLL[Aib]T-OH
modifications: N-terminus assumed
SMILES: CC(C)C[C@H](NC(=O)[C@H](Cc1c[nH]c2ccccc12)NC(=O)[C@H](CCC(N)=O)NC(=O)[C@@H](NC(=O)[C@H](Cc1ccccc1)NC(=O)[C@H](CC(=O)O)NC(=O)C(C)(C)NC(=O)[C@H](C)NC(=O)[C@H](CCCNC(=N)N)NC(=O)[C@H](CCCCNC(=O)COCCOCCNC(=O)COCCOCCNC(=O)CC[C@H](NC(=O)CCCCCCCCCCCCCCCCC(=O)O)C(=O)O)NC(=O)[C@H](CO)NC(=O)[C@H](CC(=O)O)NC(=O)[C@H](CC(C)C)NC(=O)[C@](C)(Cc1ccccc1)NC(=O)[C@H](CCCCN)NC(=O)[C@H](CO)NC(=O)[C@@H](NC(=O)[C@H](CC(=O)O)NC(=O)[C@H](CO)NC(=O)[C@@H](NC(=O)[C@H](Cc1ccccc1)NC(=O)[C@@H](NC(=O)CNC(=O)[C@H](CCC(N)=O)NC(=O)C(C)(C)NC(=O)[C@@H](N)Cc1c[nH]cn1)[C@@H](C)O)[C@@H](C)O)C(C)C)C(C)C)C(=O)N[C@@H](CC(C)C)C(=O)NC(C)(C)C(=O)N[C@H](C(=O)O)[C@@H](C)O
B7: Peptide 31 (peptide)
peptide: H[Aib]QGTFTSDVSK[αMeF]LDSK([AEEA-AEEA-γGlu-C18 diacid])RAQDFVRWLLE[Aib]G-OH
modifications: N-terminus assumed
SMILES: CC(C)C[C@H](NC(=O)[C@H](Cc1c[nH]c2ccccc12)NC(=O)[C@H](CCCNC(=N)N)NC(=O)[C@@H](NC(=O)[C@H](Cc1ccccc1)NC(=O)[C@H](CC(=O)O)NC(=O)[C@H](CCC(N)=O)NC(=O)[C@H](C)NC(=O)[C@H](CCCNC(=N)N)NC(=O)[C@H](CCCCNC(=O)COCCOCCNC(=O)COCCOCCNC(=O)CC[C@H](NC(=O)CCCCCCCCCCCCCCCCC(=O)O)C(=O)O)NC(=O)[C@H](CO)NC(=O)[C@H](CC(=O)O)NC(=O)[C@H](CC(C)C)NC(=O)[C@](C)(Cc1ccccc1)NC(=O)[C@H](CCCCN)NC(=O)[C@H](CO)NC(=O)[C@@H](NC(=O)[C@H](CC(=O)O)NC(=O)[C@H](CO)NC(=O)[C@@H](NC(=O)[C@H](Cc1ccccc1)NC(=O)[C@@H](NC(=O)CNC(=O)[C@H](CCC(N)=O)NC(=O)C(C)(C)NC(=O)[C@@H](N)Cc1c[nH]cn1)[C@@H](C)O)[C@@H](C)O)C(C)C)C(C)C)C(=O)N[C@@H](CC(C)C)C(=O)N[C@@H](CCC(=O)O)C(=O)NC(C)(C)C(=O)NCC(=O)O

Each binder was assayed against human GLP-1 receptor (hGLP-1R) (human, UniProt P43220 24-463) (assay: cell-based or functional assay).
B1 was tested, and the “hGLP-1R EC50 (pM)” value was 152 pM. For B2, the “hGLP-1R EC50 (pM)” value was 378 pM. For B3, the “hGLP-1R EC50 (pM)” value was 1230 pM. In the case of B4, the “hGLP-1R EC50 (pM)” value is reported as 266 pM. B5 was tested, and the “hGLP-1R EC50 (pM)” value was 82.8 pM. H[Aib]HGS[αMeF]TSDVSK[αMeF]LDSK([AEEA-AEEA-γGlu-γGlu-C20 diacid])AAQD[αMeF]VQ[Aib]IANT-NH2 [Peptide 25] was tested, and the “hGLP-1R EC50 (pM)” value was 726 pM. B6 was tested, and the “hGLP-1R EC50 (pM)” value was 107 pM. With B7 the “hGLP-1R EC50 (pM)” value was 41.3 pM.

Each binder was assayed against human glucagon receptor (hGCGR) (human, UniProt P47871 26-477) (assay: cell-based or functional assay).
Chain of human glucagon receptor (hGCGR) (P47871 26-477): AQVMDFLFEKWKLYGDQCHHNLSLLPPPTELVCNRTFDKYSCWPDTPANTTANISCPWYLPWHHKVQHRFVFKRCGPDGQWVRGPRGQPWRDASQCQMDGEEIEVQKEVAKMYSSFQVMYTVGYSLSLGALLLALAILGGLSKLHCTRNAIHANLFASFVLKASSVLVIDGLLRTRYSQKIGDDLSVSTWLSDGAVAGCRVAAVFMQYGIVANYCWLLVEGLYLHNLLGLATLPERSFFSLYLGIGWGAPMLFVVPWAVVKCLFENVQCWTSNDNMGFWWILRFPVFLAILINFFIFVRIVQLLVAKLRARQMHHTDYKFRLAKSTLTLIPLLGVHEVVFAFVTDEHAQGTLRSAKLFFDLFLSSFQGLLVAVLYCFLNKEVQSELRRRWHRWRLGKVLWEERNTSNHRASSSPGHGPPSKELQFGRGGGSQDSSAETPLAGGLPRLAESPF
In the case of B1, the “hGluc-R EC50 (pM)” value is reported as 136 pM. With B2 the “hGluc-R EC50 (pM)” value was 68.8 pM. For B3, the “hGluc-R EC50 (pM)” value was 2720 pM. B4 was tested, and the “hGluc-R EC50 (pM)” value was 321 pM. For B5, the “hGluc-R EC50 (pM)” value was 101 pM. In the case of H[Aib]HGS[αMeF]TSDVSK[αMeF]LDSK([AEEA-AEEA-γGlu-γGlu-C20 diacid])AAQD[αMeF]VQ[Aib]IANT-NH2 [Peptide 25], the “hGluc-R EC50 (pM)” value is reported as 1310 pM. With B6 the “hGluc-R EC50 (pM)” value was 629 pM. In the case of B7, the “hGluc-R EC50 (pM)” value is reported as 56.8 pM.
